Experimental data published in US10314894B2, “Treatment of cardio-renal disease using PCSK6” (THE CLEVELAND CLINIC FOUNDATION, priority 2014, dated 2019).

Assays:
corin mutant S472G = target: T1, corin mutant S472G (Homo sapiens, UniProt Q9Y5Q5, S472G); experiment: PCSK6-mediated corin activation in HEK293 cells, corin mutant S472G; type: cell-based; conditions: Western, densitometry
T1 construct: expressed in transfected cells; host or cells: HEK293
T1 sequence (Q9Y5Q5 1-1042 S472G): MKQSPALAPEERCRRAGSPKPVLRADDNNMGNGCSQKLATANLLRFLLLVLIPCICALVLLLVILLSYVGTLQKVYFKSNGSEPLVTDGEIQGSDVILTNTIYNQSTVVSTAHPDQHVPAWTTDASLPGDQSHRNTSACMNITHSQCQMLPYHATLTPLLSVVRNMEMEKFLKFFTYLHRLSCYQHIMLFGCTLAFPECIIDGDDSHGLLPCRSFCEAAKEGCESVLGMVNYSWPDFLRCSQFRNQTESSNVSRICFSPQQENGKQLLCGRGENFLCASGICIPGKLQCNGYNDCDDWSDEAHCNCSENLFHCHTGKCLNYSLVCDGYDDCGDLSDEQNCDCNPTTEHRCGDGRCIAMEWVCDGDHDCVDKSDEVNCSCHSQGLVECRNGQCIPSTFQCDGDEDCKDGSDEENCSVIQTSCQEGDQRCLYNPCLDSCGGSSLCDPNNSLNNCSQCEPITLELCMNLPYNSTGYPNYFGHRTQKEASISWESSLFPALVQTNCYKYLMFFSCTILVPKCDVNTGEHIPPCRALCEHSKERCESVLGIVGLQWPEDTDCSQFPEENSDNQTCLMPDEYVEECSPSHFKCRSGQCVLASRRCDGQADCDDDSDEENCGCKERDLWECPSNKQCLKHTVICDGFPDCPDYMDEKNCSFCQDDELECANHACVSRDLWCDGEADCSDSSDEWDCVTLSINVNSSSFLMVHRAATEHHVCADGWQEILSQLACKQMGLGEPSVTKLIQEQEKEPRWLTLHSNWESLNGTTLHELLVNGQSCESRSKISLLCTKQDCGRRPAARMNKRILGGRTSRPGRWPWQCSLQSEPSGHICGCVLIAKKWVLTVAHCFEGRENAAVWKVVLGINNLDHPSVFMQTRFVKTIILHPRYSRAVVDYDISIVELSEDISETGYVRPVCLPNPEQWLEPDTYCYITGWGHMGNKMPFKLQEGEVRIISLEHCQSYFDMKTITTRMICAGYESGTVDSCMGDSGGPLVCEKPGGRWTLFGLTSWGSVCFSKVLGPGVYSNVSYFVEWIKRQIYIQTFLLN
Description: (§1) Plasmids expressing human corin WT and mutants R801A, S985A, T555I, Q568P, T555I/Q568P, K317E, S472G and R539C were reported previously. Dong, N. et al., J Biol Chem 289, 17909-17916 (2014); Knappe et al., J Biol Chem 278, 52363-52370 (2003); Wu et al., J Biol Chem 277, 16900-16905. (2002). Plasmids expressing human PCSK1-9 were made by cloning respective cDNAs into pcNDA3.1 vector. Recombinant corin and PCSK proteins encoded by these plasmids contained a C-terminal V5 or flag tag for protein detection in Western blotting.
HEK293 and HL-1 cells were transfected with corin or PCSK6 expression plasmids. After 48-72 h, cells were lysed in a buffer containing 25 mM Tris-HCl, pH 7.4, 150 mM NaCl, 1 mM EDTA, 1% (v/v) NP-40, and 1% (v/v) protease inhibitor cocktail. Recombinant corin and PCSK6 proteins were immunoprecipitated with an anti-V5 or anti-flag antibody. Western blotting was carried out to analyze corin expression and activation or PCSK6 expression with or without reducing agents. Percentage of corin activation (corin-p vs. corin fragments) was quantified by densitometric analysis of Western blots.

recombinant human corin = target: T2, recombinant human corin (Homo sapiens, UniProt Q9Y5Q5); experiment: PCSK1-9 plasmids transfected in HEK293 cells expressing recombinant human corin (Western analysis); type: cell-based; conditions: plasmid transfected
T2 construct: expressed in transfected cells; host or cells: HEK293
T2 sequence (Q9Y5Q5 1-1042): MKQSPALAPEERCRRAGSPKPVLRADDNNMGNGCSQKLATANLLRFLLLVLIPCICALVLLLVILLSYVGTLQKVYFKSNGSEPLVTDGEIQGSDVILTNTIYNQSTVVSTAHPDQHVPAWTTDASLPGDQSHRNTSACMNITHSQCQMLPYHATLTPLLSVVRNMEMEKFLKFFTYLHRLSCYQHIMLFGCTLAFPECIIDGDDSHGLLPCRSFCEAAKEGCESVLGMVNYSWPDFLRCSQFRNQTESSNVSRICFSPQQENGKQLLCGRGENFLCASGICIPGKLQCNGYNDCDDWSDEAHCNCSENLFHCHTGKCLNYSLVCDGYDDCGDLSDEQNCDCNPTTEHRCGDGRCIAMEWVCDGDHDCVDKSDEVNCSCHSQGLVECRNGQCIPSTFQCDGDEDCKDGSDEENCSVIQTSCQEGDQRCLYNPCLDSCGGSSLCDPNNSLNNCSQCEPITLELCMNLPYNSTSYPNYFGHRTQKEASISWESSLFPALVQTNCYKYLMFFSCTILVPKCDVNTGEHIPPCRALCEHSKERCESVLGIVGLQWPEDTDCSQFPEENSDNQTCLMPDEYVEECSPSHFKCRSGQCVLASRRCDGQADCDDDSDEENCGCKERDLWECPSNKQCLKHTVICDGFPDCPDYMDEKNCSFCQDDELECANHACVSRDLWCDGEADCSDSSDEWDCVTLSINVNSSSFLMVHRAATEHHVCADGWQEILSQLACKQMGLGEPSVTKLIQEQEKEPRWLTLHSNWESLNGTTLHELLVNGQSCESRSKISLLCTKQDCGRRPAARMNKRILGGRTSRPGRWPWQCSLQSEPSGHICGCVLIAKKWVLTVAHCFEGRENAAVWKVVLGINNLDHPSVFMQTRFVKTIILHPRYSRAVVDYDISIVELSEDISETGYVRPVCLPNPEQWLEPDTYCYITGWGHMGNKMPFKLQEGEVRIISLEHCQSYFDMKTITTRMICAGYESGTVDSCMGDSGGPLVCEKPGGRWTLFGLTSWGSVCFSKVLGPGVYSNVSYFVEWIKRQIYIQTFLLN
Description: The PCSK family has 9 members. PCSK1-9 plasmids were transfected in HEK293 cells expressing recombinant human corin. […] By RT-PCR, PCSK6 mRNA was detected in HEK293 and HL-1 cells and in mouse and human hearts where corin is normally expressed. Yan et al., J Biol Chem 274, 14926-14935 (1999). The results were consistent with previous reports of PCSK6 expression in atrial and ventricular cardiomyocytes. Beaubien et al., Cell Tissue Res 279, 539-549 (1995).
as §1
HEK293 and HL-1 cells were transfected with corin or PCSK6 expression plasmids. After 48-72 h, cells were lysed in a buffer containing 25 mM Tris-HCl, pH 7.4, 150 mM NaCl, 1 mM EDTA, 1% (v/v) NP-40, and 1% (v/v) protease inhibitor cocktail. […] Percentage of corin activation (corin-p vs. corin fragments) was quantified by densitometric analysis of Western blots.

- reduction in PCSK6-mediated corin activation compared with WT corin (corin mutant S472G): 99%
- corin activation on PCSK overexpression (loss of corin zymogen band) (recombinant human corin): enhanced corin activation
B1: proprotein convertase subtilisin/kexin-6 (protein, listed as Homo sapiens)
chain: MPPRAPPAPGPRPPPRAAAATDTAAGAGGAGGAGGAGGPGFRPLAPRPWRWLLLLALPAACSAPPPRPVYTNHWAVQVLGGPAEADRVAAAHGYLNLGQIGNLEDYYHFYHSKTFKRSTLSSRGPHTFLRMDPQVKWLQQQEVKRRVKRQVRSDPQALYFNDPIWSNMWYLHCGDKNSRCRSEMNVQAAWKRGYTGKNVVVTILDDGIERNHPDLAPNYDSYASYDVNGNDYDPSPRYDASNENKHGTRCAGEVAASANNSYCIVGIAYNAKIGGIRMLDGDVTDVVEAKSLGIRPNYIDIYSASWGPDDDGKTVDGPGRLAKQAFEYGIKKGRQGLGSIFVWASGNGGREGDYCSCDGYTNSIYTISVSSATENGYKPWYLEECASTLATTYSSGAFYERKIVTTDLRQRCTDGHTGTSVSAPMVAGIIALALEANSQLTWRDVQHLLVKTSRPAHLKASDWKVNGAGHKVSHFYGFGLVDAEALVVEAKKWTAVPSQHMCVAASDKRPRSIPLVQVLRTTALTSACAEHSDQRVVYLEHVVVRTSISHPRRGDLQIYLVSPSGTKSQLLAKRLLDLSNEGFTNWEFMTVHCWGEKAEGQWTLEIQDLPSQVRNPEKQGKLKEWSLILYGTAEHPYHTFSAHQSRSRMLELSAPELEPPKAALSPSQVEVPEDEEDYTAQSTPGSANILQTSVCHPECGDKGCDGPNADQCLNCVHFSLGSVKTSRKCVSVCPLGYFGDTAARRCRRCHKGCETCSSRAATQCLSCRRGFYHHQEMNTCVTLCPAGFYADESQKNCLKCHPSCKKCVDEPEKCTVCKEGFSLARGSCIPDCEPGTYFDSELIRCGECHHTCGTCVGPGREECIHCAKNFHFHDWKCVPACGEGFYPEEMPGLPHKVCRRCDENCLSCAGSSRNCSRCKTGFTQLGTSCITNHTCSNADETFCEMVKSNRLCERKLFIQFCCRTCLLAG
modifications: C-terminal FLAG tag
